1 substance from publication PMC4978220 can be followed below.

The assay has as its target full-length PbgA protein with a carboxyl-terminal 6XHis tag (S. Typhimurium). Kind of assay: SEC-MALS.

What is called stoichiometry N is the number of molecules, sites or subunits per partner or assembly. “full-length PbgA protein with a carboxyl-terminal 6XHis tag (natural protein)” yielded a stoichiometry N of 4.
